Test results published in patent US20190185557 (published 2019).

T1: FcγRIIaH (human, UniProt P12318)
T1 chain: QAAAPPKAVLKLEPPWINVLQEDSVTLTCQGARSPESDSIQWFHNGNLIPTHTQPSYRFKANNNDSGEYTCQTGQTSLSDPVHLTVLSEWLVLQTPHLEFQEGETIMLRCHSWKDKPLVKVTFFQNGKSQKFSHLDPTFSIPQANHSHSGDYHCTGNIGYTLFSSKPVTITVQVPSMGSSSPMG

T2: FcγRIa (human, UniProt P12314)
T2 chain: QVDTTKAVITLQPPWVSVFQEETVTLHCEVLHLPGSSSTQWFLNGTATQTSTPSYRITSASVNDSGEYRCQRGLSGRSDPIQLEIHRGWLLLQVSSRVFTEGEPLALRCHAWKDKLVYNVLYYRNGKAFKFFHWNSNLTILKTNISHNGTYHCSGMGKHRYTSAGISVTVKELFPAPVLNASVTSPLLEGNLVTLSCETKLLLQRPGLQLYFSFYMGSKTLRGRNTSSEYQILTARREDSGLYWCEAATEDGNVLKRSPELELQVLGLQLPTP


Assays:
FcγRIIaH = biological target: T1, FcγRIIaH; assay: SPR
FcγRIa = biological target: T2, FcγRIa; assay: SPR

Binder | Kd (FcγRIIaH) | Kd (FcγRIa)
IL6R-BP445/IL6R-L (antibody) chain 1: QVQLQESGPGLVKPSETLSLTCAVSGHSISHDHAWSWVRQPPGEGLEWIGFISYSGITNYNPSLQGRVTISRDNSKNTLYLQMNSLRAEDTAVYYCARSLARTTAMDYWGEGTLVTVSSASTKGPSVFPLAPSSKSTSGGTAALGCLVKDYFPEPVTVSWNSGALTSGVHTFPAVLQSSGLYSLSSVVTVPSSSLGTQTYICNVNHKPSNTKVDKKVEPKSCDKTHTCPPCPAPDLLGDDSVFLFPPKPKDTLMISRTPEVTCVVIDVAEEDGEVKFNWYVDGVEVHNAKTKPREEQYNSTYRVVSVLTVLHQDWLNGKEYKCKVSNKALPRPIEKTISKAKGQPREPQVYTLPPSRDELTKNQVSLTCLVKGFYPSDIAVEWESNGQPENNYKTTPPVLDSDGSFFLYSKLTVDKSRWQQGNVFSCSVMHEALHNHYTQESLSLSP chain 2: not shown | 1.5 µM | 
IL6R-BP480/IL6R-L (antibody) chain 1: QVQLQESGPGLVKPSETLSLTCAVSGHSISHDHAWSWVRQPPGEGLEWIGFISYSGITNYNPSLQGRVTISRDNSKNTLYLQMNSLRAEDTAVYYCARSLARTTAMDYWGEGTLVTVSSASTKGPSVFPLAPSSKSTSGGTAALGCLVKDYFPEPVTVSWNSGALTSGVHTFPAVLQSSGLYSLSSVVTVPSSSLGTQTYICNVNHKPSNTKVDKKVEPKSCDKTHTCPPCPAPDLLGDDSVFLFPPKPKDTLMISRTPEVTCVVVDLSEDDGEVKFNWYVDGVEVHNAKTKPREEQYNSTYRVVSVLTVLHQDWLNGKEYKCKVSNKALPAPIEKTISKAKGQPREPQVYTLPPSRDELTKNQVSLTCLVKGFYPSDIAVEWESNGQPENNYKTTPPVLDSDGSFFLYSKLTVDKSRWQQGNVFSCSVMHEALHNHYTQESLSLSP chain 2: not shown |  | 0.013 µM
IL6R-BP490/IL6R-L (antibody) chain 1: QVQLQESGPGLVKPSETLSLTCAVSGHSISHDHAWSWVRQPPGEGLEWIGFISYSGITNYNPSLQGRVTISRDNSKNTLYLQMNSLRAEDTAVYYCARSLARTTAMDYWGEGTLVTVSSASTKGPSVFPLAPSSKSTSGGTAALGCLVKDYFPEPVTVSWNSGALTSGVHTFPAVLQSSGLYSLSSVVTVPSSSLGTQTYICNVNHKPSNTKVDKKVEPKSCDKTHTCPPCPAPELLGDDSVFLFPPKPKDTLMISRTPEVTCVVIDVAEEDGEVKFNWYVDGVEVHNAKTKPREEQYNSTYRVVSVLTVLHQDWLNGKEYKCKVSNKALPRPIEKTISKAKGQPREPQVYTLPPSRDELTKNQVSLTCLVKGFYPSDIAVEWESNGQPENNYKTTPPVLDSDGSFFLYSKLTVDKSRWQQGNVFSCSVMHEALHNHYTQESLSLSP chain 2: not shown | 2.4 µM | 

Next, values leading:

Kd (FcγRIIaH) | Kd (FcγRIa) | Binder
1.8 µM |  | IL6R-BP507/IL6R-L (antibody) chain 1: QVQLQESGPGLVKPSETLSLTCAVSGHSISHDHAWSWVRQPPGEGLEWIGFISYSGITNYNPSLQGRVTISRDNSKNTLYLQMNSLRAEDTAVYYCARSLARTTAMDYWGEGTLVTVSSASTKGPSVFPLAPSSKSTSGGTAALGCLVKDYFPEPVTVSWNSGALTSGVHTFPAVLQSSGLYSLSSVVTVPSSSLGTQTYICNVNHKPSNTKVDKKVEPKSCDKTHTCPPCPAPDLLGDDSVFLFPPKPKDTLMISRTPEVTCVVIDVAEEDGPVKFNWYVDGVEVHNAKTKPREEQYNSTYRVVSVLTVLHQDWLNGKEYKCKVSNKALPRPIEKTISKAKGQPREPQVYTLPPSRDELTKNQVSLTCLVKGFYPSDIAVEWESNGQPENNYKTTPPVLDSDGSFFLYSKLTVDKSRWQQGNVFSCSVMHEALHNHYTQESLSLSP chain 2: not shown
2.5 µM |  | IL6R-BP506/IL6R-L (antibody) chain 1: QVQLQESGPGLVKPSETLSLTCAVSGHSISHDHAWSWVRQPPGEGLEWIGFISYSGITNYNPSLQGRVTISRDNSKNTLYLQMNSLRAEDTAVYYCARSLARTTAMDYWGEGTLVTVSSASTKGPSVFPLAPSSKSTSGGTAALGCLVKDYFPEPVTVSWNSGALTSGVHTFPAVLQSSGLYSLSSVVTVPSSSLGTQTYICNVNHKPSNTKVDKKVEPKSCDKTHTCPPCPAPDLLGDDSVFLFPPKPKDTLMISRTPEVTCVVIDVAEEDGPVKFNWYVDGVEVHNAKTKPREEQDNSTYRVVSVLTVLHQDWLNGKEYKCKVSNKALPRPIEKTISKAKGQPREPQVYTLPPSRDELTKNQVSLTCLVKGFYPSDIAVEWESNGQPENNYKTTPPVLDSDGSFFLYSKLTVDKSRWQQGNVFSCSVMHEALHNHYTQESLSLSP chain 2: not shown
